# Measurements taken from CN112063765A (BEIJING XINSONG BIOLOGICAL TECH CO LTD, dated 2020).
# Legend:
# Test in all cases: cell-based or functional assay
# [1] = target: New Caledonia/20/99(H1N1) (Influenza A virus New Caledonia/20/99 …)
# [2] = target: A/swine/Jalisco/12-13/2012(H1N1) (Influenza A virus …)
# [3] = target: Solomon Islands/3/2006(H1N1) (Influenza A virus Solomon …)
binder,measurement,setting,value
"3E6单克隆抗体 (antibody, V domains shown) VH: EVQLEESGTELARPGASVKLALKASGYIFSSYSGQWIKQRPGAGLELIGYPYPGWIDTRYTQKLTGKATLTADKSSSTLYMQLSSLASEDSAVAYCAGSYFSSDAWGLGTTLAVSS VL: DIVLTQSPALMAASAGEKVTITCAVSQSIQSGYLAWYQQKSGISPKPWIYDTSNQAGGVPARFSGAGSGTSYSLTITSMEAEDAATYYCAQGTTSPLSFGAGTKLELK","中和活性 (Lenti-pseudovirus, 293A细胞, β-gal; 抗体浓度 0.01μg/mL)",[1],0.865
same,"中和活性 (Lenti-pseudovirus, 293A细胞, β-gal; 抗体浓度 0.01μg/mL)",[2],0.974
same,"中和活性 (Lenti-pseudovirus, 293A细胞, β-gal; 抗体浓度 0.01μg/mL)",[3],0.843
